Experimental data published in patent US20130280162A1 (IFOM FONDAZIONE ISTITUTO FIRC DI ONCOLOGIA MOLECOLARE, published 2013).

Assays:
vitronectin (VN) = target: T1, vitronectin (VN) (human, UniProt P04004 20-478); experiment: plate assay: uPAR/mFc (5 nM) with increasing uPA on immobilized VN (FIG. 4C)
T1 construct: also called immobilized VN
Description: 96-well immuno plates (NUNC MaxiSorb, blackwell) were coated with pro-uPA or VN (100 μl, 10 nM) diluted in coating buffer (50 mM sodium carbonate, pH 9.6) at 4° C. ON. Plates were washed with wash buffer (phosphate buffered saline (PBS) containing 0.1% Tween-20 (PBS-T)) and non-specific binding sites blocked (0.15 ml/well) with blocking buffer (PBS containing 2% bovine serum albumin (BSA)) for 1-2 hour at RT. […] The binding was allowed to occur for 1-2 hours at RT and the plates washed three times with wash buffer. Bound uPAR/mFc was detected by sequential incubations with a biotinylated goat anti-mouse Fc antibody (Sigma) and Eu³⁺ labeled streptavidin (Perkin Elmer). Bound Eu³⁺ was quantified by dissociation-enhanced time-resolved fluorescence measurement using an Envision Xcite plate reader (Perkin Elmer) using the DELFIA protocol.
To test the activity of uPAR-lock as an antagonist of the uPAR:VN-interaction the author utilized a binding assay in which uPAR/mFc is allowed to bind immobilized VN in the presence of uPA (FIG. 4C). In this assay uPAR/mFc binds to immobilized VN with high affinity in an uPA-dependent manner. To test the activity of uPAR-lock the author conducted the experiment with a fixed concentration of uPAR/mFc (1 nM) and an excess of uPA (5 nM) mixed with increasing concentrations of uPAR-lock or uPA for comparison (FIG. 4D). […]

[1] = target: T2, urokinase-type plasminogen activator (uPA) (human, UniProt P00749 21-431); experiment: plate assay: increasing uPAR/mFc on immobilized uPA, anti-mouse Fc and Eu-streptavidin (FIG. 4A)
T2 construct: also called pro-uPA; immobilized uPA
Description: Immobilized uPA was incubated with increasing concentrations of uPAR tagged with a mouse Fc (uPAR/mFc). After washing bound uPAR/mFc was quantified using a biotinylated anti-mouse Fc antibody and Europium labeled streptavidin. Note that uPAR/mFc display specific high-affinity binding to immobilized uPA.
96-well immuno plates (NUNC MaxiSorb, blackwell) were coated with pro-uPA or VN (100 μl, 10 nM) diluted in coating buffer (50 mM sodium carbonate, pH 9.6) at 4° C. ON. Plates were washed with wash buffer (phosphate buffered saline (PBS) containing 0.1% Tween-20 (PBS-T)) and non-specific binding sites blocked (0.15 ml/well) with blocking buffer (PBS containing 2% bovine serum albumin (BSA)) for 1-2 hour at RT. After washing with PBS-T, wells were incubated with uPAR/mFc (1 nM) in the presence or absence of the agonists and antagonists to be tested prepared in dilution buffer (PBS containing 1% BSA). The binding was allowed to occur for 1-2 hours at RT and the plates washed three times with wash buffer. Bound uPAR/mFc was detected by sequential incubations with a biotinylated goat anti-mouse Fc antibody (Sigma) and Eu³⁺ labeled streptavidin (Perkin Elmer). Bound Eu³⁺ was quantified by dissociation-enhanced time-resolved fluorescence measurement using an Envision Xcite plate reader (Perkin Elmer) using the DELFIA protocol.

T1 sequence (P04004 20-478): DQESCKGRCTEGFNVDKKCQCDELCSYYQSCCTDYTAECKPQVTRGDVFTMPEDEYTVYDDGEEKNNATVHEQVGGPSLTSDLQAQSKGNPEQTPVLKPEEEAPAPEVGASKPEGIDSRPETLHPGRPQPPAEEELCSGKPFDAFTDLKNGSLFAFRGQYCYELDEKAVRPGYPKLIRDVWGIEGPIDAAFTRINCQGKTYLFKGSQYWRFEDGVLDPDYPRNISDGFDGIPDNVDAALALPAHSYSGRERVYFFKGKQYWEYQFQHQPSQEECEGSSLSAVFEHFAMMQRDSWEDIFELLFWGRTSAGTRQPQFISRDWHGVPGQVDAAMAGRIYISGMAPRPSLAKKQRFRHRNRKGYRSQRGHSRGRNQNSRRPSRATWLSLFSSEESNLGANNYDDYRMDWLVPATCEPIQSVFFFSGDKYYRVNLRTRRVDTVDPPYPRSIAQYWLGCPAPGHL

B1: uPAR/mFc (human uPAR tagged with a murine immunoglobulin heavy chain constant region) (Fc fusion)
chain: LRCMQCKTNGDCRVEECALGQDLCRTTIVRLWEEGEELELVEKSCTHSEKTNRTLSYRTGLKITSLTEVVCGLDLCNQGNSGRAVTYSRSRYLECISCGSSDMSCERGRHQSLQCRSPEEQCLDVVTHWIQEGEEGRPKDDRHLRGCGYLPGCPGSNGFHNNDTFHFLKCCNTTKCNEGPILELENLPQNGRQCYSCKGNSTHGCSSEETFLIDCRGPMNQCLVATGTHEPKNQSYMVRGCATASMCQHAHLGDAFSMNHIDVSCCTKSGCNHPDLDLEVLFQGPLEAGAG
notes: also called uPAR tagged with a mouse Fc; Fc-tagged uPAR; not shown: mouse immunoglobulin IgG1 heavy chain, amino acids 216-441 numbered according to Adetugbo 1978 (clone IRAVp968B035D); th
binding result (vitronectin (VN)): binds
binding result [1]: binds
